Test results: PMC8062630, “Structure and assembly of double-headed Sendai virus nucleocapsids” (Communications Biology, 2021)
Substitutions are numbered along the chain they refer to.

What was measured:
[1] = molecular target: the molecule itself; test: cryo-EM structure; helical reconstruction of the helical stems of double-headed nucleocapsids (RELION 3.1); protein with bound host RNA in 20 mM Tris-HCl pH 7.4, 150 mM NaCl
[2] = molecular target: the molecule itself; test: electron microscopy of purified filaments; purified mutant nucleoproteins imaged by EM; whether negative stain or cryo-EM is not told in the text shown
[3] = molecular target: the molecule itself; test: cryo-EM imaging of filaments; nucleoprotein fractions from HEK293F lysate after two-step sucrose ultracentrifugation, put directly on cryo-EM grids

B1: Sendai virus nucleoprotein, wild type, uncleaved (NWT), assembled as nucleocapsid NCWT (natural protein)
chain: MAGLLSTFDTFSSRRSESINKSGGGAVIPGQRSTVSVFVLGPSVTDDADKLSIATTFLAHSLDTDKQHSQRGGFLVSLLAMAYSSPELYLTTNGVNADVKYVIYNIEKDPKRTKTDGFIVKTRDMEYERTTEWLFGPMVNKSPLFQGQRDAADPDTLLQIYGYPACLGAIIVQVWIVLVKAITSSAGLRKGFFNRLEAFRQDGTVKGALVFTGETVEGIGSVMRSQQSLVSLMVETLVTMNTARSDLTTLEKNIQIVGNYIRDAGLASFMNTIKYGVETKMAALTLSNLRPDINKLRSLIDTYLSKGPRAPFICILKDPVHGEFAPGNYPALWSYAMGVAVVQNKAMQQYVTGRTYLDMEMFLLGQAVAKDAESKISSALEDELGVTDTAKERLRHHLANLSGGDGAYHKPTGGGAIEVALDNADIDLEPEAHTDQDARGWGGDSGDRWARSMGSGHFITLHGAERLEEETNDEDVSDIERRIARRLAERRQEDATTHEDEGRNNGVDHDEEDDAAAAAGMGGI
notes: Sendai virus nucleoprotein (N), wild type, uncleaved; the N-tail is printed as 404-524; helical polymer, number of protomers not fixed; also called SeV nucleoprotein; SeV nucleocapsid; source: E. coli BL21 (DE3), purified (HisTrap HP, Superose 6 increase)
B1: binds [1].

B2: Sendai virus nucleoprotein loop mutant (residues 118 to 127 replaced with all alanine) (natural protein)
chain: B1 chain with F118A, I119A, V120A, K121A, T122A, R123A, D124A, M125A, E126A, Y127A
notes: Sendai virus nucleoprotein (N), derivative of NWT; also called Loop118–127 mutant; source: E. coli BL21 (DE3), purified (HisTrap HP, Superose 6 increase)
B2: binds [2].

B3: Sendai virus nucleoprotein NWT over-expressed in HEK293F cells (natural protein)
chain: B1 chain
notes: Sendai virus nucleoprotein (N), wild type; Fractions were chosen by western blot against the 6xHis tag; also called NWT in pCAGGS; nucleoproteins isolated from HEK293F cells; source: HEK293F, transfected, isolated from lysate by two-step sucrose ultracentrifugation; not shown: His6, C-terminal, kept
B3: binds [3].
